Measured values as given in US11872261B2, “Lipoprotein targeting protease inhibitors and uses” (The United States of America, as represented by the …, priority 2016, dated 2024).
No end group written: not given here. PEG2000 = poly(ethylene) glycol, 2000; VitE = vitamin E (alpha tocopherol)

Tests used:
J774 mouse macrophages = test: Elastase induced TNF-α production by J774 macrophages; type: cell-based
Protocol: (§1) FIG. 9A-9E. Alpha-1-antitrypsin enriched HDL prevents elastase induced TNF-α production by macrophages. (FIG. 9A) J774 mouse macrophages treated with increasing amounts of porcine pancreatic elastase (PPE) or heat inactivated elastase for 4 hours, TNF-α in the culture media was measured by ELISA. (FIG. 9B) J774 cells pretreated with PBS, isolated human HDL (nHDL), the same HDL enriched with alpha-1-antitrypsin (A1AT nHDL), or lipid free A1AT for 1 hour prior to PPE addition. (FIG. 9C) The ability of each of the cell treatments to inhibit elastase activity was measured in a cell-free assay. (FIG. 9D) Treatments were pre-incubated with PPE prior to addition to cells and TNF-α was measured in the culture media after 4 hours. (FIG. 9E) J774 cells were pre-incubated with each treatment for 1 hour; cells were then washed twice with PBS and placed in fresh media containing PPE and TNF-α was measured in the culture media after 4 hours. All experiments were repeated at least 3 times and were done in triplicates. Treatments were compared using one-way ANOVA and Tukey's multiple comparisons test, p<0.05 was considered significant. The letters above each treatment indicate statistical significance; within each graph, bars bearing different letters were statistically different from each other.
J774 mouse macrophages were used to examine the potential functional role of alpha-1-antitrypsin enriched HDL in inflammation. For these experiments, cells were plated in 12-well culture plates at a density of 1×10^5 cells/well two days prior to the experiment. Cells were washed twice with PBS and placed in serum-free media for 1 hour prior to addition of treatment. Treatments (PBS, nHDL, A1AT-HDL or A1AT) were added to serum-free culture media: HDL protein was matched for nHDL and A1AT-nHDL at a final concentration of 200 μg/mL. A1AT concentration was matched between free A1AT and A1AT-nHDL at a final concentration of 2 μM. Cells were then incubated with elastase (porcine pancreas, Sigma Aldrich, 500 nM) for 4 hours and media was collected and centrifuged at 3,000×g for 5 min to pellet any loose cells or debris and supernatant was transferred to fresh tubes and stored at −80° C. until further analysis. Elisa assays for mouse TNF-α (BioLegend) were performed on cell culture media.
Next, J774 cells were pre-incubated with PBS, native HDL (nHDL), A1AT enriched nHDL, or lipid-free A1AT for 1 hour prior to the addition of elastase to the culture media to allow for […] of A1AT.

[1] = molecular target: T1, porcine pancreatic elastase (PPE) (Sus scrofa, UniProt P00772); test: Elastase inhibition of the cell treatments in a cell-free assay; type: biochemical; details: same treatments as for J774 cells
T1 construct: incubated with elastase (porcine pancreas, Sigma Aldrich, 500 nM) for 4 hours; purchased Sigma Aldrich; host or cells: porcine pancreas
Protocol: as §1, with “other. […]” for “other.”

reconstituted HDL (rHDL) = molecular target: T2, reconstituted HDL (rHDL) (Homo sapiens, UniProt P02647); test: Binding of A1AT to reconstituted HDL, size exclusion chromatography; details: gel filtration profile, HDL containing apoA-I and phospholipids
T2 construct: Reconstituted HDL was prepared by cholate dialysis method, using human purified apolipoprotein A-I; from tissue
Protocol: FIG. 7A-7B. Alpha-1-antitrypsin has reduced anti-elastase activity when bound to reconstituted HDL. Reconstituted HDL (rHDL) were prepared from apoA-I and phospholipids by cholate dialysis and then co-incubated with alpha-1-antitrypsin (A1AT) to generate A1AT enriched rHDL. (FIG. 7A) Size exclusion chromatography on tandem Superdex 200 columns was used to isolate HDL bound A1AT from lipid free protein. (FIG. 7B) The ability of lipid free and rHDL bound A1AT to inhibit neutrophil elastase (NE) activity was measured by fluorometric assay.
Reconstituted HDL was prepared by cholate dialysis method, using human purified apolipoprotein A-I and 1-palmitoyl-2-oleoyl-sn-glycero-3-phosphocholine (Avanti) as previously described (Matz & Jonas, J Biol Chem 257: 4535-4540, 1982). Native human HDL was isolated from plasma by sequential density gradient ultracentrifugation (Chapman et al., J Lipid Res 22: 339-358, 1981). Reconstituted or native HDL was co-incubated with alpha-1-antitrypsin protein (Human, Sigma Aldrich) overnight at 37° C. Unbound A1AT was removed by filtration, using Amicon Ultra 100 kDa centrifugal filter units (Millipore). Elastase activity assays were performed with the EnzChek® elastase assay kit (Life Technologies). […]

elastase = molecular target: T3, elastase (Sus scrofa, UniProt P00772); test: EnzChek elastase inhibitor assay (Example 3); type: biochemical; details: EnzChek Elastase Assay Kit
T3 construct: purchased Molecular Probes E-12056
Text: Elastase Inhibitor Assay.

HDL = test: E-AAPV coincubated with purified human HDL, HDL repurified and tested for elastase inhibitor activity; type: binding; details: coincubated 30 minutes at 37° C., HDL repurified by size-exclusion chromatography
Protocol: Isolated Human HDL was co-incubated with the E-AAPV (SEQ ID NO: 5) peptide for 30 minutes at 37° C. and then HDL was reisolated by FPLC to remove unbound E-AAPV (SEQ ID NO: 5). The HDL was then tested for elastase inhibition activity and compared to control HDL which was coincubated with PBS (no peptide) and repurified. Sampes were matched based on phospholipid content.
E-AAPV peptide binds HDL and confers elastase inhibitor activity. The reaction product (E-AAPV; SEQ ID NO: 5) was coincubated with purified human HDL for 30 minutes at 37° C. followed by repurification of HDL by size-exclusion chromatography to remove unbound E-AAPV (SEQ ID NO: 5) peptide. The repurified HDL was then tested for elastase inhibitor activity using the assay described above.
E-AAPV (SEQ ID NO: 5)-loaded HDL was compared to the same HDL that was coincubated with buffer only (No peptide). The HDL and HDL+E-AAPV (SEQ ID NO: 5) were normalized based on phospholipid content, determined by colorimetric assay, prior to measurement of elastase activity.

T3 sequence (P00772 27-266): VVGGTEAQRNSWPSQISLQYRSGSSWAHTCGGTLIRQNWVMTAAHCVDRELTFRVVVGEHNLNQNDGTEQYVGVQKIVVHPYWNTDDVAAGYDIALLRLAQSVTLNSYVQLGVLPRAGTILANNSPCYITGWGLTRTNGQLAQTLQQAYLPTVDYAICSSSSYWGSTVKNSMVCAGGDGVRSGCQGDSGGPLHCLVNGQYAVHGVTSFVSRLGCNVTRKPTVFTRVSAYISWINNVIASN
T1 sequence (P00772 27-266): as above
T2 sequence (P02647 25-267): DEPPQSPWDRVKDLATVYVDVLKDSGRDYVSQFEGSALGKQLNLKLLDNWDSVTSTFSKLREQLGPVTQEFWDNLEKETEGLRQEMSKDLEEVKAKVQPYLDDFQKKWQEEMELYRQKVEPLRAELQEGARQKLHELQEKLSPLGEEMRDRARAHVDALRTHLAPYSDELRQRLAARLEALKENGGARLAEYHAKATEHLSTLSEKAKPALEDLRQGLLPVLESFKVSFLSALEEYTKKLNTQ

Row | Substance | proteolytic degradation of A1AT in cell culture media, western blot (J774 mouse macrophages; J774 cell culture media) | inhibition of elastase induced TNF-α production, treatment pre-incubated with elastase (J774 mouse macrophages; pre-incubated with elastase prior to addition to the cells) | protection against elastase induced TNF-α production (J774 mouse macrophages; pretreated 1 hour prior to elastase, A1AT 2 μM) | protection against elastase induced TNF-α production after removal of treatment (J774 mouse macrophages; pretreated 1 hour, cells washed, fresh media containing elastase) | inhibition of elastase activity in a cell-free system [1] | association of A1AT with discoidal reconstituted HDL (reconstituted HDL (rHDL)) | elastase inhibitor activity (elastase) | elastase inhibitor activity (elastase; listed as VitE-PEG-AAPV) | binding to HDL (HDL)
1 | A1AT: alpha-1-antitrypsin protein (Human, Sigma Aldrich), serine protease inhibitor | no evidence of proteolytic degradation | readily able to inhibit elastase induced TNF-α production | no significant protection | no effect | significant anti-elastase activity | a significant fraction of A1AT associates with HDL |  |  | 
2 | VitE-PEG-Ala-Ala-Pro-Val ({VitE-PEG2000}-AAPV) [E-AAPV, vitamin E linked to the A1AT linear peptide AAPV via a PEG2000 linker] |  |  |  |  |  |  | does not affect elastase inhibition activity | retains elastase inhibitor activity | binds HDL
